Assay results as given in US20260183365A1, “COMBINATION THERAPY FOR C3 INHIBITION” (Apellis Pharmaceuticals, Inc., priority 2016, published 2026).

Key:
[1] = Phase 1 single and multiple ascending dose trial of inhaled (nebulized) CA28 in healthy volunteers; assay type: in vivo, human
Experimental: In the single ascending dose part of the trial, 16 subjects were enrolled in four cohorts of four subjects each.
Four subjects were enrolled in the first cohort of the multiple ascending dose part of the trial. These subjects were to receive 14 consecutive days of treatment with a 60 mg/day dose of the drug. […] The trial was paused and subsequently resumed, with subjects receiving 30 mg/day. […] The trial was then terminated.

complement component C3 [2] = target: T1, complement component C3 (human, UniProt P01024 23-1663); assay: cell-based or functional assay
complement component C3 [3] = target: T1, complement component C3; assay: cell-based or functional assay; remark: listed apart in the source

In the case of CC[C@H](C)[C@H](NC(C)=O)C(=O)N[C@H]1CSSC[C@@H](C(=O)N[C@H](C(N)=O)[C@@H](C)O)NC(=O)[C@H](CCCNC(=N)N)NC(=O)[C@H](Cc2cnc[nH]2)NC(=O)[C@H](C)NC(=O)CNC(=O)[C@H](Cc2c[nH]c3ccccc23)NC(=O)[C@H](CC(=O)O)NC(=O)[C@H](CCC(N)=O)NC(=O)[C@H](Cc2cn(C)c3ccccc23)NC(=O)[C@H](C(C)C)NC1=O [CA28], the adverse event ([1]; inhaled 30 mg/day, after 10 days) is reported as “Another subject developed signs and symptoms consistent with a potential bacterial infection” and the adverse event ([1]; inhaled 60 mg/day, after nine days) is reported as “one subject developed signs and symptoms consistent with a potential bacterial infection”.

B1: CA28-AEEAc-Lys(mPEG40K-carbonyl) (peptide)
peptide: ICVWQDWGAHRCTK
modifications: not fully specified; N-terminal acetyl; (1Me)Trp at position 4; disulfide Cys2-Cys12; AEEAc between Thr13 and Lys; 40 kD mPEG (NOF ME-400TS) on the Lys15 side chain; C-terminal amide
In the case of B1, the “IC50 (read off the curve) (classical pathway complement activation, C3b deposition ELISA with human plasma)” value (complement component C3 [2]) is reported as roughly 700 nM.

B2: CA28-2TS-BF (peptide)
peptide: ICVWQDWGAHRCTK
modifications: not fully specified; N-terminal acetyl; (1Me)Trp at position 4; disulfide Cys2-Cys12; AEEAc between Thr13 and Lys; Lys side chain linked by a carbamate to one end of a bifunctional linear 40 kD PEG of the TS type; C-terminal amide
For B2, the “IC50 (read off the curve) (alternative pathway complement activation, LPS-coated plate, C3b deposition ELISA) [B]” value (complement component C3 [3]) was roughly 400 nM.

B3: CA28-AEEAc-Lys(mPEG40K-hexanoyl) (peptide)
peptide: ICVWQDWGAHRCTK
modifications: not fully specified; N-terminal acetyl; (1Me)Trp at position 4; disulfide Cys2-Cys12; AEEAc between Thr13 and Lys; 40 kD mPEG (NOF ME-400HS) on the Lys15 side chain; C-terminal amide
For B3, the “IC50 (read off the curve) (classical pathway complement activation, C3b deposition ELISA with human plasma)” value (complement component C3 [2]) was roughly 700 nM.

B4: CA28-AEEAc-Lys-(PEG40k) (peptide)
peptide: ICVWQDWGAHRCTK
modifications: not fully specified; N-terminal acetyl; (1Me)Trp at position 4; disulfide Cys2-Cys12; AEEAc between Thr13 and Lys; linear monofunctional 40 kD PEG (NOF ME-400GS) on the Lys side chain; C-terminal amide
With B4 the “IC50 (read off the curve) (classical pathway complement activation, C3b deposition ELISA with human plasma)” value (complement component C3 [2]) was roughly 700 nM.

B5: CA28-AEEAc-Lys(mPEG40K-succinyl) (peptide)
peptide: ICVWQDWGAHRCTK
modifications: not fully specified; N-terminal acetyl; (1Me)Trp at position 4; disulfide Cys2-Cys12; AEEAc between Thr13 and Lys; 40 kD mPEG (NOF ME-400CS) on the Lys15 side chain; C-terminal amide
For B5, the “IC50 (read off the curve) (classical pathway complement activation, C3b deposition ELISA with human plasma)” value (complement component C3 [2]) was roughly 700 nM.
